Data: PMC9482650, “Quantitative fragmentomics allow affinity mapping of interactomes” (Nature Communications, 2022)

Columns and labels:
[1] = target: DLG1_3, Q12959; assay: holdup assay; set-up: key: below the threshold = too weak to quantify, mostly under pKd 3.1 to 4; conditions: plain residues with an end cap or a label only (N-terminal biotin on a linker: ado-ado)
[2] = target: TJP1_2, Q07157; assay: holdup assay; set-up: key: below the threshold = too weak to quantify, mostly under pKd 3.1 to 4; conditions: plain residues with an end cap or a label only (N-terminal biotin on a linker: ado-ado)
Chain of TJP1_2, Q07157 (Q07157 181-274): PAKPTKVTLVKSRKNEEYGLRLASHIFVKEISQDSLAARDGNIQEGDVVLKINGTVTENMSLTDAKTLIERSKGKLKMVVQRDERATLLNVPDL

Chain of DLG1_3, Q12959 (Q12959 457-571): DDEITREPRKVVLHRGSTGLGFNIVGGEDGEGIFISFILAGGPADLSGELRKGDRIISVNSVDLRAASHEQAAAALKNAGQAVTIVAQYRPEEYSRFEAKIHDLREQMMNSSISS

B1: GAGE12J, A6NER3 (peptide)
chain: PEEGKKQSQC
pKd [1]: below the threshold | pKd [2]: below the threshold

B2: SMCHD1, A6NHR9 (peptide)
chain: QNRIITKTDV
pKd [1]: below the threshold | pKd [2]: below the threshold

B3: RSBN1, Q5VWQ0 (peptide)
chain: NLQEHSTTSV
pKd [1]: 3.76 | pKd [2]: below the threshold

B4: SEMA4C, Q9C0C4 (peptide)
chain: PDSNPEESSV
pKd [1]: 3.65 | pKd [2]: below the threshold

B5: FZD8, Q9H461 (peptide)
chain: YPKQMPLSQV
pKd [1]: 3.64 | pKd [2]: below the threshold

B6: NECTIN3, Q9NQS3 (peptide)
chain: SVISRREWYV
pKd [1]: below the threshold | pKd [2]: 3.82

B7: TNRC6A, Q8NDV7 (peptide)
chain: DHLGGGGESM
pKd [1]: below the threshold | pKd [2]: below the threshold

B8: CTBP1, Q13363 (peptide)
chain: ADRDHASDQL
pKd [1]: below the threshold | pKd [2]: below the threshold

B9: SCN4A, P35499 (peptide)
chain: VRPGVKESLV
pKd [1]: 3.97 | pKd [2]: below the threshold

B10: IGF1R, P08069 (peptide)
chain: ALPLPQSSTC
pKd [1]: 3.56 | pKd [2]: below the threshold

B11: GOLT1A, Q6ZVE7 (peptide)
chain: RRLQGTSSMV
pKd [1]: 3.58 | pKd [2]: below the threshold

B12: UNC93A, Q86WB7 (peptide)
chain: AEDEEIQTKM
pKd [1]: below the threshold | pKd [2]: below the threshold

B13: ITK, Q08881 (peptide)
chain: QLAEIAESGL
pKd [1]: 3.86 | pKd [2]: below the threshold

B14: GAB3, Q8WWW8 (peptide)
chain: EWTDERQSKV
pKd [1]: 3.76 | pKd [2]: below the threshold

B15: ADGRA2, Q96PE1 (peptide)
chain: TGLWKSETTV
pKd [1]: 4.38 | pKd [2]: 3.6

B16: PKP4, Q99569 (peptide)
chain: QYPGSPDSWV
pKd [1]: below the threshold | pKd [2]: 3.76

B17: KCNT1, Q5JUK3 (peptide)
chain: NPETRDETQL
pKd [1]: below the threshold | pKd [2]: below the threshold

B18: NDE1, Q9NXR1;Q9NXR1-2 (peptide)
chain: KSTTRSSSSC
pKd [1]: below the threshold | pKd [2]: below the threshold

B19: CLDN9, O95484 (peptide)
chain: ASGLDKRDYV
pKd [1]: below the threshold | pKd [2]: below the threshold

B20: ADGRA1, Q86SQ6 (peptide)
chain: TGPWKNETTV
pKd [1]: 4.47 | pKd [2]: below the threshold

B21: PKN2, Q16513 (peptide)
chain: RDFDYIADWC
pKd [1]: below the threshold | pKd [2]: 3.6

B22: EPHB6, O15197 (peptide)
chain: HLRQQGSVEV
pKd [1]: below the threshold | pKd [2]: below the threshold

B23: NOS1AP, O75052 (peptide)
chain: GDGLDDEIAV
pKd [1]: below the threshold | pKd [2]: below the threshold

B24: YAP1, P46937 (peptide)
chain: LDKESFLTWL
pKd [1]: below the threshold | pKd [2]: 3.67

B25: UQCRC2, P22695 (peptide)
chain: LGHTPFVDEL
pKd [1]: below the threshold | pKd [2]: below the threshold

B26: ADGRG1, Q9Y653 (peptide)
chain: SSGSTSSSRI
pKd [1]: 3.87 | pKd [2]: below the threshold

B27: GNG4, P50150 (peptide)
chain: REKKFFCTIL
pKd [1]: 4.35 | pKd [2]: below the threshold

B28: RRBP1, Q9P2E9 (peptide)
chain: GSSSKEGTSV
pKd [1]: 3.57 | pKd [2]: below the threshold

B29: PLEKHG7, Q6ZR37 (peptide)
chain: FTLPAESSEI
pKd [1]: below the threshold | pKd [2]: below the threshold

B30: APPL1, Q9UKG1 (peptide)
chain: EGGKKRESEA
pKd [1]: below the threshold | pKd [2]: below the threshold

B31: DUSP10, Q9Y6W6 (peptide)
chain: PKLMGVETVV
pKd [1]: 4.52 | pKd [2]: 3.67

B32: ADAM17, P78536 (peptide)
chain: NRVDSKETEC
pKd [1]: 3.71 | pKd [2]: below the threshold

B33: EZH1, Q92800 (peptide)
chain: VGIERETDVL
pKd [1]: below the threshold | pKd [2]: below the threshold

B34: JAM3, Q9BX67 (peptide)
chain: DFRHKSSFVI
pKd [1]: below the threshold | pKd [2]: below the threshold

B35: PLCB1, Q9NQ66 (peptide)
chain: IPGKEFDTPL
pKd [1]: below the threshold | pKd [2]: below the threshold
